B1: M40 (truncated working aptamer) (ssDNA)
DNA: ATCTACGAATTCTCCGCCAAGATAGAGGGTGGGCCGCGGAGAATTCACTGC
B2: K1 (truncated working aptamer) (ssDNA)
DNA: AATGGATCCACATCTACGAGCTCGAACGCCCGGAGGAGACGGGGGCAGGGCGTGTTCACTGCAGACTTGACGAAGCT
B3: Oligo14 (ssDNA)
DNA: CCACATCTACGAGCTCGAACGCCCGGAGGAGACGGGGGCAGGGCGTGTTCACTGCAGACTTGA

Target: Spike protein, wild-type (Wuhan) (SARS-CoV-2 (wild-type, original Wuhan …, UniProt P0DTC2 14-1213))
Experiment: ELONA; Tris buffer; […], pH 7.4, room temperature, spike immobilized; […], pH 7.4 ([…]
Conditions: protein: recombinant; chain copies: 3; label: 3' biotin

Compared with B1, B2 is 2.3-fold lower in Kd: 0.155 ± 0.026 nM for the first, 0.066 ± 0.004 nM for the second.

First: B3
Second: ACGAGCTCGAACGCCCGGAGGAGACGGGGGCAGGGCGTGTTCACTGC (ssDNA) [Oligo30]
The Kd of the first is 46-fold lower: 5.29 ± 0.95 nM for the first, 245 ± 8 nM for the second. The first binds more tightly here.
